# T1: bis-SPK-2 (KKALRRASLKG-R110-GKLSARRLAKK)
# T1 sequence: KKALRRASLKG
# T2: bis-STP-R110 (RRAT(PO3)VA-R110-AV(PO3)TARR)
# T2 sequence: RRATVA
# T3: bis-PTK5p-R110 (YIY(PO3)GAFKRRG-R110-GRRKFAG(PO3)YIY)
# T3 sequence: YIYGAFKRRG
# T4: bis-SPK-4 (KKALRKASVRG-R110-GRVSAKRLAKK)
# T4 sequence: KKALRKASVRG
# T5: LRRASLG-R110-GLSARRL, bis-rhodamine peptide kinase substrate (bis-kemptide)
# T5 sequence: LRRASLG
# T6: kemptide-AMC (LRRASLG-AMC)
# T6 sequence: LRRASLG
# T7: bis-PTK-5 (YIYGAFKRRG-R110-GRRKFAGYIY)
# T7 sequence: YIYGAFKRRG
# T8: bis-PTK5p-R110 (YIY(PO3)GAFKRRG-R110-GRRKFAG(PO3)YIY) (not fully specified)
# T8 chain: YIYGAFKRRG
# Assays:
# [1] = test system: T1, bis-SPK-2 (KKALRRASLKG-R110-GKLSARRLAKK)
# [2] = test system: T2, bis-STP-R110 (RRAT(PO3)VA-R110-AV(PO3)TARR)
# [3] = test system: T3, bis-PTK5p-R110 (YIY(PO3)GAFKRRG-R110-GRRKFAG(PO3)YIY)
# [4] = test system: T4, bis-SPK-4 (KKALRKASVRG-R110-GRVSAKRLAKK)
# [5] = test system: T5, LRRASLG-R110-GLSARRL, bis-rhodamine peptide kinase substrate (bis-kemptide)
# [6] = test system: T6, kemptide-AMC (LRRASLG-AMC)
# [7] = test system: T7, bis-PTK-5 (YIYGAFKRRG-R110-GRRKFAGYIY)
# [8] = biological target: T8, bis-PTK5p-R110 …
# Chain of tyrosine kinase lck (P06239 2-509): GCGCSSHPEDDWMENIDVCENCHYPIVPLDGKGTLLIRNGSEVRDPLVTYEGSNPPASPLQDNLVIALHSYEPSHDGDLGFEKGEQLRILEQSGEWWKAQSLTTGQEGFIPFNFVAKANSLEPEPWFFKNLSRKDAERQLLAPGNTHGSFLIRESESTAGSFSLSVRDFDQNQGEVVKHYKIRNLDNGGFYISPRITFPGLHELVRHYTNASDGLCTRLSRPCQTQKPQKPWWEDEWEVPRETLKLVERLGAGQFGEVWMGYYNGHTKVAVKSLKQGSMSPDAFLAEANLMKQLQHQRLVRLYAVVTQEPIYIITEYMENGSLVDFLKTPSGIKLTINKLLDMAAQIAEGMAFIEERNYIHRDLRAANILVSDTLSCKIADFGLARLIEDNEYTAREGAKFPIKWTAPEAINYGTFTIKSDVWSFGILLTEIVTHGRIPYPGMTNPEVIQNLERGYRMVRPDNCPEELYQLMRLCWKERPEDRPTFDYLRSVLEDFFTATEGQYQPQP
molecule,measurement,setting,value
AKT,fluorescence output after aminopeptidase M,[1],the change in output fluorescence in each assay was inversely proportional to the amount of enzyme in the reaction (Results not shown)
PKC,fluorescence output after aminopeptidase M,[1],the change in output fluorescence in each assay was inversely proportional to the amount of enzyme in the reaction (Results not shown)
PKG,fluorescence output after aminopeptidase M,[1],the change in output fluorescence in each assay was inversely proportional to the amount of enzyme in the reaction (Results not shown)
PP1,fluorescence output after aminopeptidase M,[2],The results obtained show excellent proportionality between the fluorescence output and dephosphorylation of the substrate
PP2B,fluorescence output after aminopeptidase M,[2],The results obtained show excellent proportionality between the fluorescence output and dephosphorylation of the substrate
PP2C,fluorescence output after aminopeptidase M,[2],The results obtained show excellent proportionality between the fluorescence output and dephosphorylation of the substrate
YOP 51,fluorescence output after aminopeptidase M,[3],"A similar profile was obtained with other tyrosine phosphatases, including YOP 51"
catalytic subunit of cAMP-dependent protein kinase (PKA),"kinase reaction, fluorescence output after aminopeptidase M",[1],the peptide substrate bis-SPK-2 is a better substrate for PKA than the peptide substrate bis-SPK-4
same,"kinase reaction, fluorescence output after aminopeptidase M",[4],the peptide substrate bis-SPK-2 is a better substrate for PKA than the peptide substrate bis-SPK-4
same,fluorescence output (RFU) after aminopeptidase M,[5],there is a corresponding decrease in fluorescence output with increasing concentration or units of enzyme in the reaction
same,"fluorescence output (AMC) after aminopeptidase M, with and without 50 uM ATP",[6],"In the presence of ATP, the fluorescence output decreased in proportion to the increase in amount of enzyme"
serine/threonine phosphatase PP2A,fluorescence output after Aminopeptidase II,[2],an increase in phosphatase activity resulted in an increase in fluorescence
same,fluorescence output after aminopeptidase M,[2],"PP2A dephosphorylated the substrate efficiently, and fluorescence increased proportionally to the amount of enzyme in the reaction"
tyrosine kinase lck,"fluorescence output after aminopeptidase M, with and without 100 uM ATP",[7],"where 100 um ATP was included the decrease in fluorescence output was proportional to the increase in amount of enzyme in the reaction, and little or no change was observed in the absence of ATP"
"PTP-1B, soluble tyrosine phosphatase (enzyme, UniProt P18031 1-435, looked up, species assumed) Tyrosine-protein phosphatase non-receptor type 1: MEMEKEFEQIDKSGSWAAIYQDIRHEASDFPCRVAKLPKNKNRNRYRDVSPFDHSRIKLHQEDNDYINASLIKMEEAQRSYILTQGPLPNTCGHFWEMVWEQKSRGVVMLNRVMEKGSLKCAQYWPQKEEKEMIFEDTNLKLTLISEDIKSYYTVRQLELENLTTQETREILHFHYTTWPDFGVPESPASFLNFLFKVRESGSLSPEHGPVVVHCSAGIGRSGTFCLADTCLLLMDKRKDPSSVDIKKVLLEMRKFRMGLIQTADQLRFSYLAVIEGAKFIMGDSSVQDQWKELSHEDLEPPPEHIPPPPRPPKRILEPHNGKCREFFPNHQWVKEETQEDKDCPIKEEKGSPLNAAPYGIESMSQDTEVRSRVVGGSLRGAQAASPAKGEPSLPEKDEDHALSYWKPFLVNMCVATVLTAGAYLCYRFLFNSNT",fluorescence output after aminopeptidase M,[3],the increase in the fluorescence output is proportional to the amount of phosphatase added per reaction
"CD45, recombinant human receptor protein tyrosine phosphatase (protein) SCNLDEQQELVERDDEKQLMNVEPIHADILLETYKRKIADEGRLFLAEFQSIPRVFSKFPIKEARKPFNQNKNRYVDILPYDYNRVELSEINGDAGSNYINASYIDGFKEPRKYIAAQGPRDETVDDFWRMIWEQKATVIVMVTRCEEGNRNKCAEYWPSMEEGTRAFGDVVVKINQHKRCPDYIIQKLNIVNKKEKATGREVTHIQFTSWPDHGVPEDPHLLLKLRRRVNAFSNFFSGPIVVHCSAGVGRTGTYIGIDAMLEGLEAENKVDVYGYVVKLRRQRCLMVQVEAQYILIHQALVEYNQFGETEVNLSELHPYLHNMKKRDPPSEPSPLEAEFQRLPSYRSWRTQHIGNQEENKSKNRNSNVIPYDYNRVPLKHELEMSKESEHDSDESSDDDSDSEEPSKYINASFIMSYWKPEVMIAAQGPLKETIGDFWQMIFQRKVKVIVMLTELKHGDQEICAQYWGEGKQTYGDIEVDLKDTDKSSTYTLRVFELRHSKRKDSRTVYQYQYTNWSVEQLPAEPKELISMIQVVKQKLPQKNSSEGNKHHKSTPLLIHCRDGSQQTGIFCALLNLLESAETEEVVDIFQVVKALRKARPGMVSTFEQYQFLYDVIASTYPAQNGQVKKNNHQEDKIEFDNEVDKVKQDANCVNPLGAPEKLPEAKEQAEGSEPTSGTEGPEHSVNGPASPALNQGS",fluorescence output after aminopeptidase M,[8],the increase in the fluorescence output is proportional to the amount of phosphatase added per reaction
